Data reported in the Human Domainome abundance scans (Beltran et al. 2025).
± gives the uncertainty stated by the source.

B1: 1-phosphatidylinositol 4,5-bisphosphate phosphodiesterase gamma-2, residues 772 to 827; numbered along this chain, P16885 (parent)
chain: RTVKALYDYKAKRSDELSFCRGALIHNVSKEPGGWWKGDYGTRIQQYFPSNYVEDI

Variants of: B1
Assay: abundance fitness (aPCA) (normalised: wild type 0, dead -1); higher = more abundant; growth selection in yeast, the domain comes from the species named
Settings: Homo sapiens

Row | Variant | abundance fitness
1 | H26Y | -0.121 ± 0.12
2 | H26C | -0.087 ± 0.12
3 | H26L | -0.081 ± 0.082
4 | H26M | -0.069 ± 0.096
5 | H26V | -0.035 ± 0.07
6 | H26N | -0.198 ± 0.094
7 | H26K | -0.221 ± 0.14
8 | H26E | -0.002 ± 0.087
9 | H26Q | -0.005 ± 0.086
10 | H26S | 0.01 ± 0.073
11 | H26F | 0.012 ± 0.14
12 | H26G | -0.43 ± 0.093
13 | H26P | -1.1 ± 0.24
14 | H26I | -0.084 ± 0.13
15 | H26D | -0.173 ± 0.12
16 | H26T | 0.034 ± 0.11
17 | H26W | -0.072 ± 0.08
18 | H26A | -0.113 ± 0.044
19 | V28Q | -0.762 ± 0.3
20 | V28R | -0.788 ± 0.085
21 | V28W | -0.793 ± 0.17
22 | V28S | -0.836 ± 0.25
23 | V28N | -0.671 ± 0.49
24 | V28K | -0.623 ± 0.35

Row | Variant | abundance fitness
25 | V28A | -0.873 ± 0.36
26 | V28D | -0.821 ± 0.47
27 | V28C | -0.568 ± 0.19
28 | V28T | -0.486 ± 0.23
29 | V28M | -1.08 ± 0.15
30 | W35A | -0.383 ± 0.062
31 | W35S | -0.273 ± 0.14
32 | W35G | -0.625 ± 0.072
33 | W35V | -0.29 ± 0.057
34 | W35T | -0.281 ± 0.31
35 | W35D | -0.381 ± 0.36
36 | W35I | -0.611 ± 0.32
37 | W35R | 0.089 ± 0.074
38 | W35L | -0.058 ± 0.072
39 | W35E | -0.217 ± 0.062
40 | W35F | 0.044 ± 0.19
41 | W35K | -0.58 ± 0.17
42 | W35P | -0.616 ± 0.12
43 | W35M | -0.225 ± 0.11
44 | A23F | -0.314 ± 0.23
45 | A23C | -0.092 ± 0.16
46 | A23S | -0.154 ± 0.093
47 | A23V | -0.296 ± 0.083
48 | A23Y | -0.059 ± 0.15

Row | Variant | abundance fitness
49 | A23R | -0.698 ± 0.086
50 | A23T | -0.065 ± 0.09
51 | A23E | -0.052 ± 0.088
52 | A23Q | -0.595 ± 0.19
53 | A23D | 0.096 ± 0.09
54 | A23I | -0.613 ± 0.23
55 | A23N | -0.131 ± 0.08
56 | A23K | -0.745 ± 0.38
57 | A23H | -0.471 ± 0.27
58 | A23W | -0.858 ± 0.32
59 | F19P | -0.536 ± 0.21
60 | F19G | -0.604 ± 0.23
61 | F19A | -0.758 ± 0.14
62 | F19E | -0.711 ± 0.47
63 | F19L | -0.779 ± 0.2
64 | F19K | -0.558 ± 0.42
65 | F19Q | -0.721 ± 0.34
66 | F19C | -0.64 ± 0.34
67 | F19V | -0.886 ± 0.1
68 | F19R | -0.966 ± 0.17
69 | F19D | -0.685 ± 0.13
70 | D39A | -1.01 ± 0.14
71 | D39Y | -0.31 ± 0.46
72 | D39S | -0.825 ± 0.077

Row | Variant | abundance fitness
73 | D39W | -0.82 ± 0.2
74 | D39M | -0.924 ± 0.36
75 | D39P | -0.851 ± 0.33
76 | D39T | -0.418 ± 0.21
77 | D39Q | -0.958 ± 0.21
78 | D39K | -0.74 ± 0.5
79 | D39E | -0.798 ± 0.17
80 | D39G | -0.864 ± 0.13
81 | D39F | -0.486 ± 0.49
82 | D39R | -1.01 ± 0.084
83 | D39V | -0.882 ± 0.18
84 | R21F | -0.235 ± 0.19
85 | R21S | -0.285 ± 0.14
86 | R21V | -0.122 ± 0.088
87 | R21L | -0.79 ± 0.19
88 | R21K | -0.247 ± 0.28
89 | R21N | -0.086 ± 0.36
90 | K30D | -0.214 ± 0.11
91 | K30Q | -0.208 ± 0.081
92 | K30R | -0.05 ± 0.093
93 | K30V | -0.047 ± 0.059
94 | K30Y | 0.039 ± 0.086
95 | K30N | -0.167 ± 0.1
96 | K30E | -0.042 ± 0.072

Row | Variant | abundance fitness
97 | K30L | -0.169 ± 0.057
98 | K30T | -0.245 ± 0.11
99 | K30F | -0.21 ± 0.062
100 | K30A | -0.195 ± 0.057
101 | K30W | -0.293 ± 0.17
102 | K30P | 0.246 ± 0.094
103 | K30C | -0.077 ± 0.18
104 | K30G | -0.576 ± 0.23
105 | K30M | -0.092 ± 0.082
106 | K30H | -0.054 ± 0.086
107 | K30I | 0.245 ± 0.089
108 | P32C | -0.275 ± 0.24
109 | P32K | -0.229 ± 0.15
110 | P32R | -0.166 ± 0.085
111 | P32G | -0.115 ± 0.044
112 | P32W | -0.406 ± 0.058
113 | P32L | -0.014 ± 0.078
114 | P32A | 0.056 ± 0.073
115 | P32F | -0.247 ± 0.26
116 | P32E | 0.126 ± 0.082
117 | P32Q | 0.022 ± 0.11
118 | P32D | -0.087 ± 0.14
119 | P32S | -0.011 ± 0.08
120 | P32V | -0.315 ± 0.084

Row | Variant | abundance fitness
121 | P32M | 0.093 ± 0.099
122 | P32N | 0.256 ± 0.3
123 | P32Y | -0.278 ± 0.31
124 | S18A | -0.862 ± 0.22
125 | S18T | -0.187 ± 0.25
126 | S18V | -0.914 ± 0.24
127 | S18L | -0.987 ± 0.32
128 | S18P | -0.907 ± 0.16
129 | S18R | -0.936 ± 0.12
130 | S18D | -0.201 ± 0.21
131 | S18N | -0.619 ± 0.15
132 | S18C | -0.512 ± 0.5
133 | S18F | -0.927 ± 0.094
134 | S18G | -0.679 ± 0.15
135 | S18E | 0.018 ± 0.11
136 | K37A | -0.622 ± 0.082
137 | K37F | -0.371 ± 0.21
138 | K37P | -0.617 ± 0.19
139 | K37D | -0.486 ± 0.49
140 | K37G | -0.887 ± 0.3
141 | K37V | -0.213 ± 0.048
142 | K37L | -0.276 ± 0.077
143 | K37E | -0.757 ± 0.49
144 | K37Y | -0.301 ± 0.39

Row | Variant | abundance fitness
145 | K37M | -0.548 ± 0.15
146 | K37R | -0.091 ± 0.067
147 | K37I | -0.301 ± 0.17
148 | K37T | -0.32 ± 0.14
149 | K37C | -0.318 ± 0.1
150 | K37Q | -0.407 ± 0.15
151 | K37W | -0.908 ± 0.22
152 | D15Y | -0.254 ± 0.15
153 | N27H | -0.486 ± 0.35
154 | N27I | -0.748 ± 0.4
155 | N27K | -0.625 ± 0.06
156 | N27Q | -0.13 ± 0.17
157 | N27L | -0.974 ± 0.24
158 | N27V | -0.958 ± 0.28
159 | N27C | -0.722 ± 0.14
160 | N27S | -0.473 ± 0.12
161 | N27F | -1.05 ± 0.47
162 | N27R | -0.549 ± 0.062
163 | N27A | -0.56 ± 0.12
164 | N27M | -0.695 ± 0.28
165 | N27E | -0.164 ± 0.15
166 | N27G | -0.654 ± 0.067
167 | N27W | -0.956 ± 0.32
